Laboratory results as given in PMC12000511, “Molecular basis for the assembly of the Vps5-Vps17 SNX-BAR proteins with Retromer” (Nature Communications, 2025).
Positions count from the first letter of the chain named. Numbers in names are those of the source. Where no end group is shown, it is not given here.

Key:
[1] = target: ctVps5 (full length, homodimer) (Chaetomium thermophilum); experiment: mass photometry; Refeyn OneMP, low ionic strength: 50 mM Tris-HCl pH 7.5, 40 mM NaCl, 2 mM β-ME
[2] = target: ctVps5 (full length, homodimer) (Chaetomium thermophilum); experiment: mass photometry; Refeyn OneMP, 50-100 nM protein, 50 mM Tris-HCl pH 7.5, 200 mM NaCl, 2 mM β-ME; ctRetromer and ctVps5 combined in a 1:1 ratio
[3] = target: ctRetromer (Chaetomium thermophilum Retromer trimer of ctVps35, ctVps26 and ctVps29) (Chaetomium thermophilum); experiment: ITC; as a1, with 100 µM of the control cyclic peptide RT-D1 L7E in the cell: 200 µM ctVps5 titrated into 10 µM ctRetromer
[4] = target: ctRetromer (Chaetomium thermophilum Retromer trimer of ctVps35, ctVps26 and ctVps29) (Chaetomium thermophilum); experiment: ITC; Microcal PEAQ ITC, 25 °C, 50 mM Tris-HCl pH 7.5, 200 mM NaCl, 2 mM β-ME; Vps5/Vps17/SNX1 construct or peptide (200-400 µM) titrated into 10-15 µM Retromer or Vps29; single-site model, N set to 1.0 if close to 1
[5] = target: ctRetromer (Chaetomium thermophilum Retromer trimer of ctVps35, ctVps26 and ctVps29) (Chaetomium thermophilum); experiment: ITC; as a1, with 100 µM of the cyclic peptide RT-D3 in the cell: 200 µM ctVps5 or GST-ctVps5(51–100) titrated into 10 µM ctRetromer or ctVps29
hRetromer = target: T1, hRetromer (Homo sapiens, UniProt Q96QK1+Q9UBQ0); experiment: GST pull-down with hRetromer; format: binding; conditions: 1 nmol GST-tagged protein, 2 nmol hRetromer, overnight 4 °C, SDS-PAGE/blot
T1 construct: GST (N); made in house; host or cells: E. coli BL21(DE3) (general statement for bacterial constructs)
Experimental: GST pull-down assay of scVps5 and hRetromer was performed similar to the one described above with some modifications. The purified hRetromer at 2 nmol was mixed with 1 nmol GST-tagged hFam21R19–R21, scVps5_70–128 LF native, scVps5_70–128 LF mutant or GST alone separately overnight at 4 °C before added to fresh glutathione Sepharose pre-equilibrated with buffer as mentioned above. In all cases, beads were washed five times with the equilibration buffer and bounds proteins were analysed by SDS-PAGE gels.

[6] = target: ctVps29 (Chaetomium thermophilum); experiment: ITC; Microcal PEAQ ITC, 25 °C, 50 mM Tris-HCl pH 7.5, 200 mM NaCl, 2 mM β-ME; Vps5/Vps17/SNX1 construct or peptide (200-400 µM) titrated into 10-15 µM Retromer or Vps29; single-site model, N set to 1.0 if close to 1
[7] = tested on: scRetromer and scSNX-BAR on supported membrane tubes; experiment: Supported membrane tube (SMT) assay; format: biochemical, Saccharomyces cerevisiae
Experimental: Supported membrane tubes were generated as described[46]. Briefly, glass coverslips were first washed with 3 M NaOH for 5 min and rinsed with water before a 60 min treatment with piranha solution (95% H2SO4/30% H2O2 3:2 v/v). Coverslips were rinsed with water and dried on a heat block at 90 °C. Coverslips were then silanized with 3-glycidyloxypropyltrimethoxysilane (Catalogue no. 440167, Sigma) for 5 h under vacuum, rinsed with acetone and dried. Polyethylene glycol coating was done by placing the coverslips in a beaker containing PEG400 (Sigma) at 90 °C for 60 h. Coverslips were washed with distilled water and stored for up to 2 months at room temperature in a closed container.
To generate supported membrane tubes, lipids were mixed from 10 mg/mL stocks in a glass vial and diluted to a final concentration of 1 mg/mL in chloroform. The same lipid mix was used throughout this study (5% PI(3)P, 15% DOPS, 0.1% fluorescent lipid tracer (Cy5.5 PE or Texas red DHPE), 79.5% egg-PC). Lipids were then spotted (typically 1 µL, corresponding to about 1 nmol) on the coverslips and dried for 30 min under vacuum. The coverslip was mounted on an IBIDI 6-channel µ-slide (µ-Slide VI 0.4. IBIDI, catalog no: 80606). Lipids were hydrated for 15 min with buffer (PBS) and SMTs were generated by injecting PBS into the chamber using an Aladdin Single-Syringe Pump (World Precision Instruments, model n°. AL-1000) at a flow rate of 1,5 mL/min for 5 min. SMTs were left to stabilize without flow for 5 min before the start of the experiment. Protein stocks (typically 1–2 µM) were first diluted in PBS and then injected in the chamber at a flow rate of 80 µL per minute. Cyclic peptides were added to the proteins from a 30 mM stock in DMSO to a final concentration of 300 µM. the protein/peptide mix was incubated for 1 min at room temp (23 °C) before being added to the SMTubes.

[8] = tested on: yeast vps5Δ cells (SEY6210); experiment: Vacuole fragmentation (FM4−64) in vps5Δ yeast; format: cell-based, Saccharomyces cerevisiae; conditions: vps5Δ cells complemented with Vps5 variant on plasmid
Experimental: (§1) The Saccharomyces cerevisiae strains are derived from SEY6210 (Supplementary Table 3). Vps5 and Pep4 deletions, Vps5 N-terminal point mutations and endogenous tagging of Vps10 was conducted based on the CRISPR-Cas9 system. The vector co-expressing single guide RNA and Cas9 enzyme was co-transformed into yeast cells with double-stranded oligonucleotides as the templates for homologous recombination (Supplementary Table 4). For Vps5 deletion, the template contained 40-bp homology upstream and downstream of its coding sequence. Vps10^mNeonGreen was created by a template comprising its C-terminal region with mutated PAM sequence and fused mNeonGreen tag followed by 40-bp homology region after the stop codon. Vam10 was cloned into pRS305 vector using Not1/Sma1 restriction sites to generate an integrative plasmid that was linearized, transformed and integrated ectopically into the auxotrophic selectable marker LEU2 gene locus.
The VPS5 gene with its native promoter, C-terminally fused HA-tag and ADH1 terminator was cloned into pRS314 centromeric plasmid. A point mutation was introduced in the start codon of VAM10 (M-to-I) by site-directed mutagenesis, because VAM10 overlaps with VPS5[71]. […] For the N-terminal deletion mutant of Vps5 (Δ1-280), residues 838–2025 of VPS5 were amplified and subcloned into the pRS314-VPS5-HA plasmid described above using Nco1/Sma1 restriction sites. The plasmid bearing the PL motif mutation (L196R) was generated using site-directed mutagenesis in the pRS314-VPS5-HA plasmid. To abolish all three putative binding sites to Retromer, a synthetic gene fragment of VPS5 (ordered from GenScript) containing the following mutations—start codon of VAM10 sequence(M-to-I), L196R, L121G, F122G and F161E—was subcloned into the pRS314-VPS5-HA plasmid using Nco1/Stu1 restriction sites.
Vacuoles were stained with FM4−64. Cells were grown in SD^-URA medium to an OD600 between 0.6 and 1.0. The culture was diluted to an OD600 of 0.4, and FM4−64 was added to a final concentration of 10 µM from a 10 mM stock in DMSO. […]

Vps10 = experiment: Vps10-mNeonGreen localisation/recycling in vps5Δ yeast (Pearson colocalization with vacuole); format: cell-based, Saccharomyces cerevisiae; conditions: vps5Δ cells complemented with Vps5 variant on plasmid; confocal microscopy
Excerpt: Fig. 7 The interaction of Retromer with the Vps5 N-terminal domain is required for Vps10 recycling. A AlphaFold2 predicted structure of the scVps35–scVps29–scVps5 complex highlighting residues targeted for mutagenesis. B Yeast cells (SEY6210) carrying a Vps5 deletion, and expressing a copy of Vam10 (the VAM10 gene is embedded in VPS5 and deleted with it) and Vps10-mNeonGreen were complemented with centromeric plasmids expressing variants of Vps5. These cells were logarithmically grown in SD-URA medium, stained with FM4−64 and analysed by confocal microscopy. Single slices of the images are shown. Scale bar: 1 μm. Arrowheads indicate regions of Vps10 vacuolar localisation, and open arrowheads indicate Vps10 localised to pre-vacuolar comparmtnets. C Graph representation showing the Pearson Colocalizastion Coefficient between the vacuolar and Vps10 signals of Vps5 deleted yeast cells shown in B quantified using JACoP (Just Another Co-localization Plugin) implemented in ImageJ. Error bars are the standard deviations calculated from ≥ 70 measurements from 2 experiments.
as §1, with “locus. […]” for “locus.”

Molecule: ctRetromer (Chaetomium thermophilum Retromer trimer of ctVps35, ctVps26 and ctVps29) (complex)
- stoichiometry N (ctRetromer per ctVps5 dimer) [1]: 2
- stoichiometry N (ctRetromer per ctVps5 dimer) [2]: 1

Molecule: ctVps5 (full length, homodimer) (natural protein)
- Kd with 100 µM RT-D1 L7E (control peptide) present [3]: 750 nM
- dH [3]: -7.53 kcal/mol
- Kd [4]: 720 nM
- dH [4]: -8.5 kcal/mol
- Kd with 100 µM RT-D3 (competitor) present [5]: 9410 nM
- dH [5]: -10.5 kcal/mol
- stoichiometry N [2]: 2

Molecule: GST-tagged scVps5_70–128: GST-tagged S. cerevisiae Vps5 residues 70–128 containing the LF motif (GLSVAGNPQLEEHDNSKADDLINSLAPEQDPIADLKNSTTQFIATRESGGALFTGNANS; not fully specified (N-terminus); also: GST fusion, end not given here)
- binding to hRetromer in GST pull-down (hRetromer): only binds weakly to VPS35
- binding to hRetromer in GST pull-down (hRetromer; listed as GST- scVps570-128): binds weakly to hRetromer

Molecule: GST-ctVps5_(51–100) (domain or fragment)
- Kd [6]: 1600 nM
- dH [6]: -2.16 kcal/mol
- Kd [4]: 660 nM
- dH [4]: -4.1 kcal/mol

B1: quadruple mutant Vps5 (L121G/F122G/F161E/L196R): scVps5 mutant altering PL, [K/R]Φ and LFa sites (protein, UniProt Q92331 1-675, looked up, variant L121G F122G F161E L196R)
Vacuolar protein …: MDYEDNLEAPVWDELNHEGDKTQSLVSNSIESIGQISTNEERKDNELLETTASFADKIDLDSAPEWKDPGLSVAGNPQLEEHDNSKADDLINSLAPEQDPIADLKNSTTQFIATRESGGAGGTGNANSPLVFDDTIYDANTSPNTSKSISGRRSGKPRILEDSARAQRNSKRNHSLKAKRTTASDDTIKTPFTDPRKKAEKENEFVEEPLDDRNERRENNEGKFTASVEKNILEQVDRPLYNLPQTGANISSPAEVEENSEKFGKTKIGSKVPPTEKAVAFKVEVKDPVKVGELTSIHVEYTVISESSLLELKYAQVSRRYRDFRWLYRQLQNNHWGKVIPPPPEKQSVGSFKENFIENRRFQMESMLKKICQDPVLQKDKDFLLFLTSDDFSSESKKRAFLTGSGAINDSNDLSEVRISEIQLLGAEDAAEVLKNGGIDAESHKGFMSISFSSLPKYNEADEFFIEKKQKIDELEDNLKKLSKSLEMVDTSRNTLAASTEEFSSMVETLASLNVSEPNSELLNNFADVHKSIKSSLERSSLQETLTMGVMLDDYIRSLASVKAIFNQRSKLGYFLVVIENDMNKKHSQLGKLGQNIHSEKFREMRKEFQTLERRYNLTKKQWQAVGDKIKDEFQGFSTDKIREFRNGMEISLEAAIESQKECIELWETFYQTNL
- Vps5–Vps17 heterodimer formation of mutant ([7]; quadruple mutant Vps5 with scVps17): do not impair heterodimer formation
- coat formation / recruitment on SMTs ([7]; scSNX-BAR and scRetromer on SMTs containing 5% PtdIns(3)P): showed a defect of coat formation
- vacuole fragmentation [8]: strong vacuole fragmentation
- Vps10 recycling/localisation (Vps10): severe Vps10 recycling sorting defect

B2: wildtype Vps5: S. cerevisiae wildtype Vps5 re-introduced into knockout cells (protein, UniProt Q92331 1-675, looked up)
Vacuolar protein …: B1 Vacuolar protein … with G121L, G122F, E161F, R196L
- vacuole fragmentation [8]: clear recovery of large vacuoles
- Vps10 recycling/localisation (Vps10): localization of Vps10-mNeonGreen on punctate structures

B3: Vps5 (L196R): single amino acid substitution in the core PL motif of scVps5 (protein, UniProt Q92331 1-675, looked up, variant L196R)
Vacuolar protein …: B1 Vacuolar protein … with G121L, G122F, E161F
- vacuole fragmentation [8]: partial rescue of vacuole fragmentation
- Vps10 recycling/localisation (Vps10): partial defect in Vps10 recycling
